Results: the nanobody polyreactivity screen of Harvey et al. (2022)

Experiment: yeast display, Sf9 membrane polyspecificity reagent, FACS + sequencing; frameworks hold sequencing errors
Procedure, shortened: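 After 36–48 hours of galactose induction, yeast (Saccharomyces cerevisiae BJ5465) displaying a synthetic nanobody library were stained at 4 °C for 1 hour with 10% biotinylated, detergent-solubilized Sf9 membrane reagent. Streptavidin microbeads enriched the stained cells before FACS sorting into low and high (top ~1%) gates on anti-HA and streptavidin fluorescence. Each clone's polyreactivity label reflects its gate of origin.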

Sequence	polyreactivity (PSR sort gate)
QVQLVESGGGLVQAGGSLRLSSAASGSIFDPYAMGWYRQAPGKERELVAGISFSGGRTYYADSVKGRFTISRDNAKNTVYLQMNSLKPEDTAVYYCNKLLTQGAYPYYYWGQGTQVTVSS	high polyreactivity
QVQLVESGGGLVQAGGSLRLSSAASGSIFGANAIGWYRQAPGKERELVAAISRRGRSTYYADSVKGRFTISRDNAKYTVYLQLNSLKPEDTAVYYSAAKRPQYYVQYGYWGQGTQVTVSS	high polyreactivity
QVQLVESGGGLVQAGGSLRLSSAASGSIFGDYVMGWYRPAPGKERELVAAINRGGSTYYADSVKGRFTISRDNAKNTVYLQMNSLKPEDTAVYDCAKDYHNYPSFGVDYCGQGTQVTVSS	low polyreactivity
QVQLVESGGGLVQAGGSLRLSSAASGSIFGPYAMGWYRQAPGKERELVAAITWTGGRTYYADSVKGRFTISRDNAKKTVYLQMHSLKPEDTAVDYCAADYSPSTWYLYYTLYYYWGQGTQVTVSS	low polyreactivity
QVQLVESGGGLVQAGGSLRLSSAASGSIFGYNPMGWYRPAPGKERELVAAIRISTDNTYYADSVKGRFTISRDNAKNTVYLQMNSLKPEDTAVDYCAADEYWWGYYYWGQGTQVTVSS	high polyreactivity
QVQLVESGGGLVQAGGSLRLSSAASGSIFKINAMGWYRQAPGKETELVATITWSTGTTYYADSVKGRFTISRDNAKNTVYLQMNSLKPEDTAVYYCATDGDSTKLDYWGQVTQVTVSS	low polyreactivity
QVQLVESGGGLVQAGGSLRLSSAASGSIFLKNAMGRSRQAPGKERELVARISFSGGSTYYADSVKGRFTISRDNAQNTVYLQMNSLKPEDTAVYYCAKTVLRTESGWWIKFDYWGQGTQVTVSS	low polyreactivity
QVQLVESGGGLVQAGGSLRLSSAASGSIFSQYDIGWYRPAPGKERQLVAAISSGGSTYYADSVKGRFTISRYNAKNTVYLQMNSLKPEDTAVYYCAAVYYQITTTHYLHLHYDYWGQGTQVTVSS	low polyreactivity
QVQLVESGGGLVQAGGSLRLSSAASGSIFVNYVMGWYRQAPGKERELVADISSGGSTYYADSVKGRFTISRDNAKNTVYLQMNSLKPEDTAVYYCNAVYPYTYDYWGQGTQVTVSS	low polyreactivity
QVQLVESGGGLVQAGGSLRLSSAASGSIFYDNAMAGYRQAPGKERELVAVITVSGESTYYADSVKGRFTISRDNAKTTVYLQMNSLKPEDTAVYYCNTDAISGSHFWRYITFGYLDDYWGQGTQVTVSS	low polyreactivity
QVQLVESGGGLVQAGGSLRLSSAASGSIFYDYAMGWYRQAPGKERELVAAITNDDSSTYYADSVKGRFTISRDNAKNTVYLQMNSLKPEDTAVYYCRFKYAVAHHFWVYRYDYWGQGTQVTVSS	low polyreactivity
QVQLVESGGGLVQAGGSLRLSSAASGSIFYGNTMGWYRQAPGKERELVAAIRSVGRTYYADSVKGRFTISRDNAKNTDSLQMNSLKPEDTAVYYCAADPRSYFTSEYWGQGSQVTVSS	low polyreactivity
QVQLVESGGGLVQAGGSLRLSSAASGSIFYYYAMGWYRQAPGKARELVATINISDGSTYYAVSVKGRFTISRDNAKNTVYLQMNSLKPEDTAVYYCAAYYYFQDYDYWGQGTQVTVSS	low polyreactivity
QVQLVESGGGLVQAGGSLRLSSAASGSIIQSNAIGGYRQAPGTERELVAAISYRGSRTYYADSVKGRFTISRDNAKNTVYIQMNSLKPDDTAVYYCAAVYRTYGIGPNNYWGQGTQVTVSS	high polyreactivity
QVQLVESGGGLVQAGGSLRLSSAASGSTFDYYALGWYSQARGKERELVAAISTSGSSTYYADSVKGRFTISRDNAKNTVYLQMNSLKPVDTAVYYCAAPIRYKGGYWGQGTQVTVSS	low polyreactivity
QVQLVESGGGLVQAGGSLRLSSAASGSTFDYYAMGWYRQAPGKERELVDGITYSGGTTYYADSVKGRFTISRDNAKNTVYLQMNSLKPEDTAVYYCNAVYDRNFYYWGQGTQVTVSS	high polyreactivity
QVQLVESGGGLVQAGGSLRLSSAASGSTFEIYAMGWYRQAPGKERDLVAGITTSDGRTDYADSVKGRFTISRDNAKNTVYLLMNILKPEDTAVYYCAKVTLGYTWYQYDYWGQGTQVTVSS	low polyreactivity
QVQLVESGGGLVQAGGSLRLSSAASGSTFFSYAMGWYRQAPGKERELVAAITRSGGSTYYADSVKGRFTISRDNAKNNVYLHMNSLTPEDTSVYYCAVLSALWRVFTERGYWGQGTQVTVSS	high polyreactivity
QVQLVESGGGLVQAGGSLRLSSAASGSTFGYNAMGRYRPAPGKERELVAAISRSGGSTSNADSVMGRFTISRDNANNTVYLQMNSLKPEDTAVYYCAARYYKERYWGQGTQVTVSA	low polyreactivity
QVQLVESGGGLVQAGGSLRLSSAASGSTFHNYAMRWSRQAPGNEREWVASIRLIGGSTYYADSVKGRFTISRDNAKNTVYLQMNSLKPEDTAVYYCAATSTDRSYLEYDYWGQGTQVTVSS	low polyreactivity
QVQLVESGGGLVQAGGSLRLSSAASGSTFRTYTMGWYRQAPGKERELVASITSGGRTYYADSVKGRFTISRDNAKNTVYLQMNSMKPEDTAVYYCAADVCKLYDYWGQGTQVTVSS	low polyreactivity
